Publication PMC5805389 (Biochemistry, 2016)

Biological target: the molecule itself
Test: crystal structure

B1: human DJ-1, wild type (natural protein)
chain: GSHMASKRALVILAKGAEEMETVIPVDVMRRAGIKVTVAGLAGKDPVQCSRDVVICPDASLEDAKKEGPYDVVVLPGGNLGAQNLSESAAVKEILKEQENRKGLIAAICAGPTALLAHEIGFGSKVTTHPLAKDKMMNGGHYTYSENRVEKDGLILTSRGPGTSFEFALAIVEALNGKEVAAQVKAPLVLKD
- stoichiometry N: 2

B2: human DJ-1 D24N (natural protein)
chain: GSHMASKRALVILAKGAEEMETVIPVNVMRRAGIKVTVAGLAGKDPVQCSRDVVICPDASLEDAKKEGPYDVVVLPGGNLGAQNLSESAAVKEILKEQENRKGLIAAICAGPTALLAHEIGFGSKVTTHPLAKDKMMNGGHYTYSENRVEKDGLILTSRGPGTSFEFALAIVEALNGKEVAAQVKAPLVLKD
- binding result: binds
